This note sets out measurements from US7147850.

Assay [1] deals with MUC-1 on ZR-75-1 cells deglycosylated with 4 mM Phenyl-N-alpha-D-Glucosamide (unglycosylated MUC-1) (human) (UniProt P15941). The assay is described as follows: FACScan on deglycosylated ZR-75-1 cells (PBS control 6.76).
Assay [2] has as its target MUC-1 glycoprotein on untreated ZR-75-1 cells (glycosylated MUC-1) (human) (UniProt P15941). The assay is described as follows: FACScan on untreated ZR-75-1 cells (PBS control 6.23).

Chain of MUC-1 on ZR-75-1 cells deglycosylated with 4 mM Phenyl-N-alpha-D-Glucosamide (unglycosylated MUC-1) (human) (P15941 24-1255, form in doubt): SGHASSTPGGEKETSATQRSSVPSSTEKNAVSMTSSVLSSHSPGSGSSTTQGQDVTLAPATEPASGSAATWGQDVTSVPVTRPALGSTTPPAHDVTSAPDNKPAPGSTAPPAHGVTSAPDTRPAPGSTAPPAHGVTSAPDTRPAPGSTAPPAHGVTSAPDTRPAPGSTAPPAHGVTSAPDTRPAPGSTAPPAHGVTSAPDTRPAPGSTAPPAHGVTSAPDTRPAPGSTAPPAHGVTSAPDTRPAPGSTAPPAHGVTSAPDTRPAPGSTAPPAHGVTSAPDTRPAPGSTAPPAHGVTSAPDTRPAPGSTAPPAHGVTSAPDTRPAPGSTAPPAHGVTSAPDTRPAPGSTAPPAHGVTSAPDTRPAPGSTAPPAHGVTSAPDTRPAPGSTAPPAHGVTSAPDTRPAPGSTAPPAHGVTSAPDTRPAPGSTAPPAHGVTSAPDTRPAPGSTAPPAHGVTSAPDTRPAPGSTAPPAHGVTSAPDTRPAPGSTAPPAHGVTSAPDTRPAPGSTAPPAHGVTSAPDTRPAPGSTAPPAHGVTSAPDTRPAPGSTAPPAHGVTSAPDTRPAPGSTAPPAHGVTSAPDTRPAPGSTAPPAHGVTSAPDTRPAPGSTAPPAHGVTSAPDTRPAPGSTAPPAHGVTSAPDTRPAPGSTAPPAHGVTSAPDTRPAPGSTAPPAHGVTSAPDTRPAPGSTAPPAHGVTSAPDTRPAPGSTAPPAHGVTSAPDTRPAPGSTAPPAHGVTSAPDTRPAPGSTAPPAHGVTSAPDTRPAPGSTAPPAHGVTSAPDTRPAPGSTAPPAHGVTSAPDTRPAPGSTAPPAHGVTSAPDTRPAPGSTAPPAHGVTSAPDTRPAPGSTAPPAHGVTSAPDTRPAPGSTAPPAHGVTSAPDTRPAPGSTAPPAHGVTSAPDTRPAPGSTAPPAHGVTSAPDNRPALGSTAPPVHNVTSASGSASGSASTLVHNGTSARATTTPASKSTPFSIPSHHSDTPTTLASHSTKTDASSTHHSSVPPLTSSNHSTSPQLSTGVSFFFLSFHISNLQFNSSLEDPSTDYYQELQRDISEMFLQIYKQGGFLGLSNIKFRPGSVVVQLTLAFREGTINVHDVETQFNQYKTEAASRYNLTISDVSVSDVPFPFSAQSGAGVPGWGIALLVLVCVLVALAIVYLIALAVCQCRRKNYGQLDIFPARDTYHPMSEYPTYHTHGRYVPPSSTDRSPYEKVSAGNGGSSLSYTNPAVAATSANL
Chain of MUC-1 glycoprotein on untreated ZR-75-1 cells (glycosylated MUC-1) (human) (P15941 24-1255): as the sequence (P15941 24-1255, form in doubt) above

Regarding SM3 (antibody), the % positive cells in assay [1] was determined as 41.3%; in assay [2], 7.49%.
